The values that follow come from patent publication US20250084178A1 (ARCUS BIOSCIENCES, published 2025).

For assay [1], the target named is T1, cynomolgus monkey CD39 expressed on HEK-293 cells (cynomolgus monkey, UniProt P49961 5-510 (human entry)).
T1 construct: also called Cynomolgus Monkey CD39-HEK293
T1 chain: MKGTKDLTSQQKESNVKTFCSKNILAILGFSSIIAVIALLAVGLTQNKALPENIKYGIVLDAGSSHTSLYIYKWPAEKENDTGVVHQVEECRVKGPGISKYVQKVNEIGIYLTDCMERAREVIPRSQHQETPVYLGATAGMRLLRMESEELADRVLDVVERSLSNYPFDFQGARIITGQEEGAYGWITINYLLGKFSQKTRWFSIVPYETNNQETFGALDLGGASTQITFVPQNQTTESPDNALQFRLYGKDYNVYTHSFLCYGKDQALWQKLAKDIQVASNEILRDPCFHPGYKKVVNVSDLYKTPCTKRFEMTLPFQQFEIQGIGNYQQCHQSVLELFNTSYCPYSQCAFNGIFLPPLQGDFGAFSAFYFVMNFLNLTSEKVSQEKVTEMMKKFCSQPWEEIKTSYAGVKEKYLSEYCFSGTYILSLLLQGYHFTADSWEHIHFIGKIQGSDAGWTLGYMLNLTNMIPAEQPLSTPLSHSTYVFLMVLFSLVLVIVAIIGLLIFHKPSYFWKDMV
The assay is described as follows: FACS on HEK293 cells overexpressing cynomolgus CD39.

Assay [2] addresses T2, human CD39 expressed on the cell surface (human, UniProt P49961 1-510).
T2 sequence: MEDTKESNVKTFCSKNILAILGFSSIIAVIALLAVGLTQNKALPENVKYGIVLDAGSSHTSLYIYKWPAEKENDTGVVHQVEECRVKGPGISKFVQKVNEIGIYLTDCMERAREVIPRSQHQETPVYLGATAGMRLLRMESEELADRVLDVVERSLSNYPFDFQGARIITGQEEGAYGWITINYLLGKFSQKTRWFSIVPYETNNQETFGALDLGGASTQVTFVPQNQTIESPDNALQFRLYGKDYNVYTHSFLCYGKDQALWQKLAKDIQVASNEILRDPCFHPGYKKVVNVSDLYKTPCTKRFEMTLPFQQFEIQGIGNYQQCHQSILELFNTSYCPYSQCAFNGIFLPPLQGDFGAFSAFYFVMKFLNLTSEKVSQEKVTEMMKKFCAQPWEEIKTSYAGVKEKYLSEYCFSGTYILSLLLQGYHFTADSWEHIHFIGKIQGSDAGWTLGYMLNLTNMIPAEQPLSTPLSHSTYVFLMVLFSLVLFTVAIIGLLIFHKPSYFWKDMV
Description: cell-based or functional assay.

In assay [3] the target is T2, human CD39 expressed on the cell surface. The assay is described as follows: cell-based or functional assay. The source holds these as a separate data set.
Assay [4] shares this target. The assay is described as follows: cell-based or functional assay. The source holds these as a separate data set.
Assay [5] has as its target T3, soluble His-tagged human CD39 ECD protein (human, UniProt P49961 38-478).
T3 construct: also called human CD39 ECD His-tagged antigen; Sino Biological Cat. No. 16020-H08B
T3 sequence: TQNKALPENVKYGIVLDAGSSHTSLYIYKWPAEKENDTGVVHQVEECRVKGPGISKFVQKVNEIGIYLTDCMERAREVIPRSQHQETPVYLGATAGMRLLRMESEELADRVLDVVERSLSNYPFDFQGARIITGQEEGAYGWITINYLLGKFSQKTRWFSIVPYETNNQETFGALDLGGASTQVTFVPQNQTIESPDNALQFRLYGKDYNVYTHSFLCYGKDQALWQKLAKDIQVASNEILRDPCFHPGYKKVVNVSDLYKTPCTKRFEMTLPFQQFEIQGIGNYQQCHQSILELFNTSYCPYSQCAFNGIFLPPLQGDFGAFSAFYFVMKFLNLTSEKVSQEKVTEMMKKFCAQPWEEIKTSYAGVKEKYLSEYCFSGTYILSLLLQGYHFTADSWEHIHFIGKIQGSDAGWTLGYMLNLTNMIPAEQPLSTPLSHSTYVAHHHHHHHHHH
The assay is described as follows: SPR (Biacore 8K), antibody captured via anti-human Fc, CD39 ECD analyte.

Assay [6] concerns the target T2, human CD39 expressed on the cell surface. The assay is described as follows: cell-based or functional assay. This is another data set of the same source.
Assay [7] has the same target. Description: flow cytometry on purified human CD14+ monocytes, 400 uM ATP.
Assay [8] shares this target. Description: FACS on CHO-K1 cells overexpressing human CD39.
Assay [9] shares this target. The assay is described as follows: cell-based or functional assay. The source holds these as a separate data set.
Assay [10] shares this target. The assay is described as follows: flow cytometry on purified human CD14+ monocytes, 0 uM ATP.

B1: hu39.5_IGG4.P (antibody, human IgG4 S228P, kappa)
heavy: not shown
light: DTVLTQSPASLAVSPGQRATITCRASEGVKSYMHWYQQKPGQPPKLLIYKASNLASGVPARFSGSGSGTDFTLTINPVEADDTANYYCQQSWNDPTFGQGTKLEIKRTVAAPSVFIFPPSDEQLKSGTASVVCLLNNFYPREAKVQWKVDNALQSGNSQESVTEQDSKDSTYSLSSTLTLSKADYEKHKVYACEVTHQGLSSPVTKSFNRGEC
notes: humanized variant of antibody 39 (VH3 + VL1 with I2T), IgG4 (S228P)
The molecule B1 came in with an EC50 in assay [1] of 0.088 nM. In [2], the “IC50, CD39 enzymatic inhibition on human monocytes, 20 uM ATP” value amounted to 0.15 nM and the “Max Inhibition (%), human monocytes, 20 uM ATP” value came to 72%. In addition, in [3], the “IC50, CD39 enzymatic inhibition on SK-MEL-5 cells, 20 uM ATP” value is 0.14 nM and the “Max Inhibition (%), SK-MEL-5 cells” value was 66%. Further, in assay [4], the “IC50, CD39 enzymatic inhibition on human monocytes, 400 uM ATP” value came out at 0.2 nM and the “Max Inhibition (%), human monocytes, 400 uM ATP” value was 60%. Binding in assay [5] was put at a Kd of 0.121 nM. Further, the “Human THP-1 CD39 inhibition IC50” value in assay [6] is 0.1 nM. In assay [7], this molecule returned an EC50 of 10 nM. This molecule returned an EC50 in assay [8] of 0.44 nM. Further, in [9], the “IC50, CD39 enzymatic inhibition on THP-1 cells, 20 uM ATP” value was 0.062 nM and the “Max Inhibition (%), THP-1 cells” value turned out to be 83%. The same molecule showed a half-maximal effective concentration (EC50) in [10] of 3.9 nM.
